The source of these data is patent publication US10746738B2, “Claudin-1 peptide reagents and methods” (THE REGENTS OF THE UNIVERSITY OF MICHIGAN, priority 2015, dated 2020).

One assay concerns the target T1, claudin-1 (CLDN1) (Homo sapiens, UniProt O95832).
T1 construct: endogenous in cells; host or cells: SW620 human colorectal adenocarcinoma cells
T1 sequence (O95832 1-211): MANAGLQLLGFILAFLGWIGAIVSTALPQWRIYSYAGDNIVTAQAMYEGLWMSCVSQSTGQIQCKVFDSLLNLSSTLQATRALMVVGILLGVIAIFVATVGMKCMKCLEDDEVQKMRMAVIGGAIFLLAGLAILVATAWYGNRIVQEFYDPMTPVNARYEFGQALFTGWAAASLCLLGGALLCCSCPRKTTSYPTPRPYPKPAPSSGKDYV
The assay is described as follows: siRNA knockdown of CLDN1 expression, peptide and antibody binding to SW620 cells. It is filed as cell-based. On the procedure:
CLDN1 expression was knocked down using Dharmacon On-Target Plus SMARTpool Human CLDN1 siRNA (Thermo Scientific) according to the manufacturer's protocol. SW620 cells were plated overnight on coverslips in a 12-well plate at 0.2×10^6 cells/mL. The following day, cells were transfected with 3 μL DharmaFECT1 and either 25 nM CLDN1 or control siRNA. After 72 h, transfected cells were analyzed for CLDN1 expression through immunocytochemistry, a peptide binding study, or a Western blot of the cell lysate. For the immunocytochemistry experiment, cells were fixed with ice-cold methanol for 20 minutes at −20° C., blocked for 1 h at RT with PBS+2% BSA, stained with anti-human CLDN1 antibody at 5 μg/mL for 1 h at RT, then with goat anti-Rabbit AF488 (1:500) for 1 h at RT before being mounted on slides with DAPI with Prolong Gold. siRNA-transfected cells were also stained with 5 μM RTS-Cy5.5 or SPT-Cy5.5 for 30 minutes at 4° C., fixed with 4% PFA for 10 minutes at RT, then mounted on slides. Simultaneously, transfected cells were lysed with RIPA buffer containing Roche Mini-Complete EDTA-free Protease Inhibitor for 10 minutes on ice, collected and spun at 20,000×g for 10 minutes at 4° C. Supernatant was saved, total protein concentration quantified via a BCA assay, and 10 ug protein of each sample run on a Novex 4-20% 1.5 mm protein gel before transferring to a PVDF membrane. The membrane was blocked with PBST+5% non-fat milk for 1 h at 4° C., stained with either rabbit anti-CLDN1 Ab or mouse anti-tubulin Ab at 4° C. overnight, then with anti-rabbit HRP (1:500, for CLDN1) or anti-mouse HRP (1:500, for tubulin) for 1 h at RT before developing.
The specificity of peptide binding was validated on siRNA knockdown. […] These cells were transfected with siRNA to knockdown cell surface expression of claudin-1. […] The fluorescence intensities (mean±std) are shown (FIG. 2H). […] Given the experimental design and mean-squared-errors shown in FIG. 2H, with triplicate slides we have 98% power to obtain P<0.01 for interactions that show a 3-fold difference of differences.

A further assay relates to SW620 cells. The assay is described as follows: Apparent dissociation constant by flow cytometry. The conditions noted are these: 0-200 nM, 1 h at 4° C., R^2=0.95. It is filed as binding, human. On the procedure:
The apparent dissociation constant of RTS*-Cy5.5 to SW620 cells was measured. SW620 cells were washed two times with PBS+0.5% BSA, then 1×10^5 cells were incubated with RTS*Cy5.5 at dilutions ranging from 0-200 nM for 1 h at 4° C. Cells were then washed of unbound peptide 5 times with PBS+0.5% BSA before analyzing via flow cytometry (FACS Canto, BD). Sample means were used to calculate the equilibrium dissociation constant, kd, via nonlinear regression analysis using GraphPad Prism software.
The apparent dissociation constant (kd) of the peptides to cells in vitro was determined. The fluorescently-labeled peptide was be serially diluted in PBS at concentrations that ranged from 0 to 200 nM in 25 nM increments. Cells were incubated with the peptide, and the mean fluorescence intensities was measured on flow cytometry. The equilibrium dissociation constant kd=1/ka was calculated by performing a least squares fit of the data to the non-linear equation I=(I0+Imaxka[X])/([…]). I0 and Imax are the initial and maximum fluorescence intensities, corresponding to no peptide and at saturation, respectively, and [X] represents the concentration of the bound peptide. This approach is illustrated with RTS*-Cy5.5 in FIG. 3B, where kd=42 nM.

The test system of another assay is colonic dysplasia. The assay is described as follows: In vivo fluorescence endoscopy of colon in CPC;Apc mouse. The conditions noted are these: CPC;Apc mouse colon. An excerpt: A genetically engineered mouse model (Cpc;Apc) that spontaneously forms adenomatous polyps in the colon was used for this study and handled according to Institutional Guidelines. The colons of anesthetized mice were first cleaned with water before imaging with a small animal endoscope (Karl Storz Veterinary Endoscope) using the white light channel to locate polyps by identifying anatomic landmarks and the distance of the endoscope tip from the anus. […] Fluorescent and reflectance images were then collected with the same endoscope set to the appropriate channels. Once in vivo imaging was complete, four of the mice used in the study were euthanized and colons harvested. Polyps and flat lesions detected during fluorescence imaging were located, removed, and processed for histology (H&E).
These mice are genetically-engineered to spontaneously develop colonic dysplasia, and the colonic lesions that develop are molecularly and histologically similar to that seen in human disease, making these mice a good model for monitoring cancer development. Because the extra-cellular domain of claudin-1 is completely homologous between human and mouse, peptides developed for human targets can be directly used in mouse imaging experiments. […] CPC;Apc mice were imaged at ˜3 months of age when they first begin to develop dysplasia. […] After imaging is completed, mice were euthanized, and the colons were resected. Based on the location of dysplastic lesions determined using fluorescence images collected with endoscopy, a pathologist measured the depth of dysplasia on histology, as shown by the dashed arrow in FIG. 7E. […] Images are obtained from mice over at least three sessions separated by 1 week to monitor for cancer progression.

“Also recorded” adds a separate entry of the source.

Regarding “RTS*-Cy5.5: RTSPSSR labeled at the C-terminus with Cy5.5 via a GGGSK linker”, in the assay with claudin-1 (CLDN1) (SW620 cells, control siRNA versus CLDN1 siRNA, 3 replicate slides), the “signal for siCL versus siCLDN1 cells” value is listed as 10.5 fold-change. Besides, in the assay with claudin-1 (CLDN1) (confocal microscopy), the “binding to the surface of SW620 cells” value was “strong binding”. The Kd in the assay with SW620 cells came to 42 nM. Also, the “fluorescence signal from dysplasia on endoscopy” value in the assay with colonic dysplasia is “Increased signal; also recorded: increased fluorescence”.
